Data published in patent publication US20240209076A1 (KODIAK SCIENCES, published 2024).

Molecular target: human IL-6 (human, UniProt P05231 30-212)
Test: SPR Biacore, supernatant, Protein A capture, 37 C
Method: Those four positions were selected based on their tolerance for mutations as observed in bacterial and mammalian screens. […] These cultures were centrifuged and supernatants containing secreted antibodies were harvested and diluted in HBS-EP+ running buffer (1:20 ratio).
Antibodies were captured on a Protein A chip (GE) by injecting 1:20 cell supernatant dilutions at 10 μL/min for 60 seconds. […] The sensor chip was regenerated by a 60 seconds injection of 10 mM Glycine pH 1.7 at the flow rate of 50 μL/min. […] For this setup, 1 μg/mL of purified antibody was injected over a Protein A chip at 10 μL/min for 25 seconds. […] The sensor chip was regenerated by a 60 seconds injection of 10 mM Glycine pH 1.7 at flow rate of 50 μL/min. Data analysis for supernatant and purified samples were performed using BIAevaluation software (GE). All sensorgrams were double reference subtracted and fit using a 1:1 Langmuir binding model.

Chain of human IL-6 (P05231 30-212 limits assumed): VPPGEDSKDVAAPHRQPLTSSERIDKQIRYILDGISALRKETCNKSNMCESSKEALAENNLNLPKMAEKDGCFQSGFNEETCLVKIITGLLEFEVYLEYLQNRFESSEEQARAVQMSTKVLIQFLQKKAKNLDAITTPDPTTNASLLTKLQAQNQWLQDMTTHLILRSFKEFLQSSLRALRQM

Binder | Kd | koff | kon
Anti-IL-6 antibody, heavy chain S35H, G66D, Q99G / light chain M32L, M50D, N52S, M88Q (antibody, IgG1, V domains shown, IgG1; variable domains only; VL is variant III) VH: EVQLVESGGGLVQPGGSLRLSCAASGFTFSPFAMHWVRQAPGKGLEWVAKISPGGSWTYYSDTVTDRFTFSLDTSKSTAYLQMNSLRAEDTAVYYCARGLWGYYALDIWGQGTLVTVSS VL: DIQLTQSPSSLSASVGDRVTITCSASISVSYLYWYQQKPGKAPKLLIYDDSSLASGVPSRFSGSGSGTDFTLTISSLQPEDFATYYCQQWSGYPYTFGQGTKVEIK | 2.58 nM | 0.00774 s⁻¹ | 3e+06 M⁻¹ s⁻¹
Anti-IL-6 antibody, heavy chain S35H, G66D, Q99G / light chain WT (antibody, IgG1, V domains shown, IgG1; variable domains only) VH: EVQLVESGGGLVQPGGSLRLSCAASGFTFSPFAMHWVRQAPGKGLEWVAKISPGGSWTYYSDTVTDRFTFSLDTSKSTAYLQMNSLRAEDTAVYYCARGLWGYYALDIWGQGTLVTVSS VL: DIQLTQSPSSLSASVGDRVTITCSASISVSYMYWYQQKPGKAPKLLIYDMSNLASGVPSRFSGSGSGTDFTLTISSLQPEDFATYYCMQWSGYPYTFGQGTKVEIK | 0.961 nM | 0.0033 s⁻¹ | 3.43e+06 M⁻¹ s⁻¹
Anti-IL-6 antibody, heavy chain S35H, G66D, Q99H / light chain M32L, M50D, N52S, M88Q (antibody, IgG1, V domains shown, IgG1; variable domains only; VL is variant III) VH: EVQLVESGGGLVQPGGSLRLSCAASGFTFSPFAMHWVRQAPGKGLEWVAKISPGGSWTYYSDTVTDRFTFSLDTSKSTAYLQMNSLRAEDTAVYYCARHLWGYYALDIWGQGTLVTVSS VL: DIQLTQSPSSLSASVGDRVTITCSASISVSYLYWYQQKPGKAPKLLIYDDSSLASGVPSRFSGSGSGTDFTLTISSLQPEDFATYYCQQWSGYPYTFGQGTKVEIK | 5.52 nM | 0.00441 s⁻¹ | 798000 M⁻¹ s⁻¹
Anti-IL-6 antibody, heavy chain S35H, G66D, Q99H / light chain WT (antibody, IgG1, V domains shown, IgG1; variable domains only) VH: EVQLVESGGGLVQPGGSLRLSCAASGFTFSPFAMHWVRQAPGKGLEWVAKISPGGSWTYYSDTVTDRFTFSLDTSKSTAYLQMNSLRAEDTAVYYCARHLWGYYALDIWGQGTLVTVSS VL: DIQLTQSPSSLSASVGDRVTITCSASISVSYMYWYQQKPGKAPKLLIYDMSNLASGVPSRFSGSGSGTDFTLTISSLQPEDFATYYCMQWSGYPYTFGQGTKVEIK | 1.7 nM | 0.00136 s⁻¹ | 802000 M⁻¹ s⁻¹
Anti-IL-6 antibody, heavy chain S35H, G66D, Q99I / light chain M32L, M50D, N52S, M88Q (antibody, IgG1, V domains shown, IgG1; variable domains only; VL is variant III) VH: EVQLVESGGGLVQPGGSLRLSCAASGFTFSPFAMHWVRQAPGKGLEWVAKISPGGSWTYYSDTVTDRFTFSLDTSKSTAYLQMNSLRAEDTAVYYCARILWGYYALDIWGQGTLVTVSS VL: DIQLTQSPSSLSASVGDRVTITCSASISVSYLYWYQQKPGKAPKLLIYDDSSLASGVPSRFSGSGSGTDFTLTISSLQPEDFATYYCQQWSGYPYTFGQGTKVEIK | 0.0381 nM | 0.000206 s⁻¹ | 5.41e+06 M⁻¹ s⁻¹
Anti-IL-6 antibody, heavy chain S35H, G66D, Q99I / light chain WT (antibody, IgG1, V domains shown, IgG1; variable domains only) VH: EVQLVESGGGLVQPGGSLRLSCAASGFTFSPFAMHWVRQAPGKGLEWVAKISPGGSWTYYSDTVTDRFTFSLDTSKSTAYLQMNSLRAEDTAVYYCARILWGYYALDIWGQGTLVTVSS VL: DIQLTQSPSSLSASVGDRVTITCSASISVSYMYWYQQKPGKAPKLLIYDMSNLASGVPSRFSGSGSGTDFTLTISSLQPEDFATYYCMQWSGYPYTFGQGTKVEIK | 3.86 nM | 0.00335 s⁻¹ | 868000 M⁻¹ s⁻¹
Anti-IL-6 antibody, heavy chain S35H, G66D, Q99K / light chain M32L, M50D, N52S, M88Q (antibody, IgG1, V domains shown, IgG1; variable domains only; VL is variant III) VH: EVQLVESGGGLVQPGGSLRLSCAASGFTFSPFAMHWVRQAPGKGLEWVAKISPGGSWTYYSDTVTDRFTFSLDTSKSTAYLQMNSLRAEDTAVYYCARKLWGYYALDIWGQGTLVTVSS VL: DIQLTQSPSSLSASVGDRVTITCSASISVSYLYWYQQKPGKAPKLLIYDDSSLASGVPSRFSGSGSGTDFTLTISSLQPEDFATYYCQQWSGYPYTFGQGTKVEIK | 0.368 nM | 0.00146 s⁻¹ | 3.97e+06 M⁻¹ s⁻¹
Anti-IL-6 antibody, heavy chain S35H, G66D, Q99K / light chain WT (antibody, IgG1, V domains shown, IgG1; variable domains only) VH: EVQLVESGGGLVQPGGSLRLSCAASGFTFSPFAMHWVRQAPGKGLEWVAKISPGGSWTYYSDTVTDRFTFSLDTSKSTAYLQMNSLRAEDTAVYYCARKLWGYYALDIWGQGTLVTVSS VL: DIQLTQSPSSLSASVGDRVTITCSASISVSYMYWYQQKPGKAPKLLIYDMSNLASGVPSRFSGSGSGTDFTLTISSLQPEDFATYYCMQWSGYPYTFGQGTKVEIK | 15.1 nM | 0.00333 s⁻¹ | 220000 M⁻¹ s⁻¹
